# Target: 70S ribosome (vacant) (E. coli MRE600)
row,"KM of the 70S ribosome-stimulated multiple turnover GTPase activity (0.01 uM protein, 100 uM GTP, 0 to 8 uM 70S) [µM]",Substance
1,36,EF4 ΔA494 (from UniProt P60785 1-494) (domain or fragment)
2,0.32,"Elongation Factor 4 (EF4/LepA), wild type (from UniProt P60785 1-599) (enzyme)"
3,10,EF4 ΔP520 (from UniProt P60785 1-520) (domain or fragment)
4,7,EF4 ΔG555 (from UniProt P60785 1-555) (domain or fragment)

# From paper PMC4339808
